Experimental data from patent US20250333514A1 (CDR LIFE, published 2025).
Substitutions are numbered along the chain they refer to. Values belong to the binder of their own block, whether it stands above or below them.

How the values were obtained:
[1] = biological target: HLA-A*02:01 loaded with PRAME peptide G8A (human, Non-covalent three-chain complex; biotinylated for capture on the chip, site or tag of biotinylation not stated.); test: SPR (Biacore 8K), pMHC captured, Fab-scFv analyte
Method: (§1) Recombinantly produced hits in Fab-scFv format, as described in Example 4, were evaluated for their ability to bind HLA-A*02:01/PRAME antigen. Binding characterization was performed by surface plasmon resonance (SPR) using a Biacore™ 8k (Cytiva) device. Briefly, 3000 RU of Biotin CAPture reagent (Cytiva) was immobilized on a Series S Sensor Chip CAP (Cytiva) and the biotinylated ligand HLA-A*02:01/PRAME (SEQ ID NO: 68) was diluted in HPS-EP+ running buffer (TEKNOVA) and captured for 300 s at a flow rate of 2 μL/min at flow cell 2 resulting in a ligand capture level of >100 RU. Subsequently, at least three consecutive analyte injections were performed at suitable concentrations applying the single-cycle-kinetics mode at a flow rate of 30 μL/min with an association time of 90 s and the dissociation time set to >400 s. The chip surface was regenerated according to the manufacturer's instructions. After reference flow cell signal and blank injections subtraction, the data was fit to a 1:1 Langmuir binding model to determine the association rate constant kₐ and dissociation rate constant kd and calculate the equilibrium dissociation constant KD (kd/kₐ), also denoted as affinity, using the Biacore™ Insight Evaluation software.
(§2) The molecular recognition profile of monovalent (Fab-scFv) antigen binding molecules M3076 and M3287 for HLA-A*02:01/PRAME binding (equivalent bivalent (Fab-(scFv)₂) antigen binding molecules are M3167 and M3292, respectively) were determined by SPR measurements with HLA-A*02:01 complexes loaded with PRAME peptide or peptides containing a single amino acid substitution to alanine, arginine or aspartic acid. The kinetic parameters for each HLA-A*02:01 complex loaded with a peptide was determined by SPR, according to the previously described method in Example 5.

[2] = biological target: HLA-A*02:01 loaded with PRAME peptide L6A (human, Complex captured as in Example 5 (biotinylated ligand); biotin site or tag not stated, not in the letters.); test: SPR (Biacore 8K), pMHC captured, Fab-scFv analyte
Method: as §1, §2

[3] = biological target: HLA-A*02:01 loaded with PRAME peptide L3A (human, Complex captured as in Example 5 (biotinylated ligand); biotin site or tag not stated, not in the letters.); test: SPR (Biacore 8K), pMHC captured, Fab-scFv analyte
Method: as §1, §2

[4] = biological target: HLA-A*02:01 loaded with PRAME peptide H5A (human, Complex captured as in Example 5 (biotinylated ligand); biotin site or tag not stated, not in the letters.); test: SPR (Biacore 8K), pMHC captured, Fab-scFv analyte
Method: as §1, §2

[5] = biological target: HLA-A*02:01 loaded with PRAME peptide L9A (human, Non-covalent three-chain complex; biotinylated for capture on the chip, site or tag of biotinylation not stated.); test: SPR (Biacore 8K), pMHC captured, Fab-scFv analyte
Method: as §1, §2

[6] = biological target: HLA-A*02:01 loaded with PRAME peptide S1A (human, Complex captured as in Example 5 (biotinylated ligand); biotin site or tag not stated, not in the letters.); test: SPR (Biacore 8K), pMHC captured, Fab-scFv analyte
Method: as §1, §2

[7] = biological target: T1, HLA-A*02:01/PRAME antigen (recombinant, … on HLA-A*02:01) (human, Complex biotinylated for SPR capture; site of biotin and any tag not stated, not in the letters.); test: SPR (Biacore 8K), biotinylated pMHC captured, Fab-scFv analyte, single-cycle kinetics, 1:1 fit
T1 construct: also called PRAME target; pMHC
Method: as §1

[8] = biological target: HLA-A*02:01 loaded with PRAME peptide I7R (human, pMHC ligand was biotinylated for capture (Example 5); site or tag of biotinylation not disclosed); test: SPR (Biacore 8K), pMHC captured, Fab-scFv analyte
Method: as §1, §2

[9] = biological target: HLA-A*02:01 loaded with PRAME peptide S1R (human, Non-covalent three-chain complex; biotinylated for capture on the chip, site or tag of biotinylation not stated.); test: SPR (Biacore 8K), pMHC captured, Fab-scFv analyte
Method: as §1, §2

[10] = biological target: HLA-A*02:01 loaded with PRAME peptide L6R (human, Non-covalent three-chain complex; biotinylated for capture on the chip, site or tag of biotinylation not stated.); test: SPR (Biacore 8K), pMHC captured, Fab-scFv analyte
Method: as §1, §2

[11] = biological target: HLA-A*02:01 loaded with PRAME peptide H5R (human, Non-covalent three-chain complex; biotinylated for capture on the chip, site or tag of biotinylation not stated.); test: SPR (Biacore 8K), pMHC captured, Fab-scFv analyte
Method: as §1, §2

[12] = biological target: HLA-A*02:01 loaded with PRAME peptide L2R (human, Non-covalent three-chain complex; biotinylated for capture on the chip, site or tag of biotinylation not stated.); test: SPR (Biacore 8K), pMHC captured, Fab-scFv analyte
Method: as §1, §2

[13] = biological target: HLA-A*02:01 loaded with PRAME peptide L3R (human, Non-covalent three-chain complex; biotinylated for capture on the chip, site or tag of biotinylation not stated.); test: SPR (Biacore 8K), pMHC captured, Fab-scFv analyte
Method: as §1, §2

[14] = biological target: HLA-A*02:01 loaded with PRAME peptide Q4R (human, Non-covalent three-chain complex; biotinylated for capture on the chip, site or tag of biotinylation not stated.); test: SPR (Biacore 8K), pMHC captured, Fab-scFv analyte
Method: as §1, §2

[15] = biological target: HLA-A*02:01 loaded with PRAME peptide L9R (human, pMHC ligand was biotinylated for capture (Example 5); site or tag of biotinylation not disclosed); test: SPR (Biacore 8K), pMHC captured, Fab-scFv analyte
Method: as §1, §2

[16] = biological target: HLA-A*02:01 loaded with PRAME peptide G8R (human, pMHC ligand was biotinylated for capture (Example 5); site or tag of biotinylation not disclosed); test: SPR (Biacore 8K), pMHC captured, Fab-scFv analyte
Method: as §1, §2

[17] = biological target: T1, HLA-A*02:01/PRAME antigen (recombinant, …); test: SPR (Biacore 8K), pMHC captured, Fab-scFv analyte
Method: as §1, §2

- Kd [1]: 0.77 nM
- Kd [2]: 15 nM
- Kd [3]: 0.19 nM
- Kd [4]: 3 nM
- Kd [5]: 1.7 nM
- Kd [6]: 0.09 nM
- Kd [7]: 0.07 nM
- Kd [8]: 18 nM
- Kd [9]: 0.08 nM
- binding result [10]: no binding
- Kd [11]: 93 nM
- Kd [12]: 0.04 nM
- Kd [13]: 1 nM
- Kd [14]: 0.08 nM
- Kd [15]: 1.4 nM
- binding result [16]: no binding
- Kd [17]: 0.08 nM
B1: M3076 (bispecific antibody)
heavy: EVQLVESGGGLVQPGGSLRLSCAASGFTFSTYAMNWVRQAPGKGLEWVGRIRSKYNNYATYYADSVKGRFTISRDDSKNTLYLQMNSLRAEDTAVYYCVRHGNFGDSYVSWFAYWGQGTLVTVSSASTKGPSVFPLAPSSKSTSGGTAALGCLVKDYFPEPVTVSWNSGALTSGVHTFPAVLQSSGLYSLSSVVTVPSSSLGTQTYICNVNHKPSNTKVDKKVEPKSCGGGGSDIQMTQSPSSLSASVGDRVTITCRSSQSVYNNLLGWYQQKPGKAPKLLIYSASTLASGVPSRFSGSGSGTDFTLTISSLQPEDFATYYCQGTYYNGDWYYPFGCGTKVEIKGGGGSGGGGSGGGGSGGGGSQVQLVESGGGSVQPGRSLRLSCAASGFDFSTYGVSWVRQAPGKCLEWIGYIDPVYGSTHYADSVKGRFTISRDNSKNTLYLQMNSLRAEDTASYYCVRDLYAGSSGYYMIYSLWGQGTSVTVSS
light: QAVVTQEPSLTVSPGGTVTLTCGSSTGAVTTSNYANWVQQKPGKSPRGLIGGTNKRAPGVPARFSGSLLGGKAALTISGAQPEDEADYYCALWYSNHWVFGGGTKLTVLGQPKAAPSVTLFPPSSEELQANKATLVCLISDFYPGAVTVAWKADSSPVKAGVETTTPSKQSNNKYAASSYLSLTPEQWKSHRSYSCQVTHEGSTVEKTVAPTECS
notes: Humanized variant of M2638, monovalent Fab-scFv; bivalent equivalent is M3167

- Kd [1]: 9.8 nM
- Kd [2]: 67 nM
- Kd [3]: 1.6 nM
- Kd [4]: 16 nM
- Kd [5]: 18 nM
- Kd [6]: 1.1 nM
- Kd [7]: 0.57 nM
- Kd [8]: 83 nM
- Kd [9]: 0.57 nM
- binding result [10]: no binding
- binding result [11]: no binding
- Kd [12]: 0.31 nM
- Kd [13]: 9.2 nM
- Kd [14]: 0.49 nM
- Kd [15]: 6.1 nM
- binding result [16]: no binding
- Kd [17]: 0.57 nM
B2: M3287 (bispecific antibody)
heavy: B1 heavy with F317S, N328T, M473V
light: B1 light
notes: Humanized variant of M2638, monovalent Fab-scFv; bivalent equivalent is M3292
